In publication PMC5974017, “Increased glutarate production by blocking the glutaryl-CoA dehydrogenation pathway and a catabolic pathway involving L-2-hydroxyglutarate” (Nature Communications, 2018):

Columns and labels:
[1] = biological target: T1, LhgO homolog from Klebsiella pneumoniae ATCC25955 (Klebsiella pneumoniae, UniProt A6T539); test: L-2-HG oxidation to 2-KG; format: biochemical
T1 construct: gene ygaF; recombinant from E. coli BL21(DE3), pETDuet-1, HisTrap purified

[2] = biological target: T2, LhgO (Pseudomonas putida, UniProt Q88IT9); test: DCPIP reduction at […] nm; product 2-KG by HPLC and LC-MS/MS; format: biochemical; settings: 50 mM Tris-HCl pH 7.4, 30 °C, 5 mM L-2-HG, 0.1 mM DCPIP
T2 construct: recombinant His-tagged from E. coli BL21(DE3), pETDuet-1; partly lost FAD on purification
T2 sequence (Q88IT9 1-416): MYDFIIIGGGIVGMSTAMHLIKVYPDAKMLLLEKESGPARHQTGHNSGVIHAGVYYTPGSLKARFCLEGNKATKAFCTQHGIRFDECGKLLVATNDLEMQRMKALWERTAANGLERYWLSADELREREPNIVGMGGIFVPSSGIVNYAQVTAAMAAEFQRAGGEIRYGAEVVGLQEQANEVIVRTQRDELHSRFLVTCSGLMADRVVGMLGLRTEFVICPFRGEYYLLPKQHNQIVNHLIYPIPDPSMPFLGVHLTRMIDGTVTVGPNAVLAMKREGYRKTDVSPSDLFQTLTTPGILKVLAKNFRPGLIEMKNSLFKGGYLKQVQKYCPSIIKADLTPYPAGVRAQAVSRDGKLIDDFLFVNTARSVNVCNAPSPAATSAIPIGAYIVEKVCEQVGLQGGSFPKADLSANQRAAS

[3] = biological target: T3, YgaF (Escherichia coli, UniProt P37339); test: L-2-HG oxidation to 2-KG; oxygen electrode; format: biochemical; settings: 50 mM Tris-HCl pH 7.4, 30 °C, 5 mM L-2-HG
T3 construct: gene lhgD; recombinant from E. coli BL21(DE3), pETDuet-1, HisTrap purified
T3 sequence (P37339 1-422): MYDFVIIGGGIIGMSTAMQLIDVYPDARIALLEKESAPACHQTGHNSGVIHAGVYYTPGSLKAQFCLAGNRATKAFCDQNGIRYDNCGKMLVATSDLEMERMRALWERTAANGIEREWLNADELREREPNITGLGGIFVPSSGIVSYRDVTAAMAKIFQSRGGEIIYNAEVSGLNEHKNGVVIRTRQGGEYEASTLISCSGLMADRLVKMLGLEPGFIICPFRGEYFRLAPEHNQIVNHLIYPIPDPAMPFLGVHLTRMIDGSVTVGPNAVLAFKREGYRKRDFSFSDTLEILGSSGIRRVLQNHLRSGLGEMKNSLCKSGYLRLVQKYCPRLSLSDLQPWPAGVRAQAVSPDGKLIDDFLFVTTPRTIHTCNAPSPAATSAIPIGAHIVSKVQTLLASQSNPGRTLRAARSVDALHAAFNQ

[4] = biological target: T2, LhgO; test: oxygen electrode, stimulation of oxidase activity; format: biochemical; settings: enzyme preincubated with 50 μM FAD 1 h on ice; 5 mM L-2-HG, Tris-HCl pH 7.4, 30 °C
[5] = tested on: O=C(O)CCC(=O)C(=O)O; test: Clark-type oxygen electrode, double-reciprocal plot; format: biochemical, Pseudomonas putida; settings: pH 6.7
Source text: (§1) Clark-type oxygen electrode, double-reciprocal plot on CsiD

[6] = tested on: O=C(O)CCCC(=O)O; test: as above; format: biochemical, Pseudomonas putida; settings: pH 6.7
Source text: as §1

[7] = biological target: T4, CsiD homolog from E. coli K-12 MG1655 (Escherichia coli, UniProt P76621); test: glutarate hydroxylation by purified homolog; format: biochemical; settings: co-substrate 2-KG
T4 construct: gene glaH; recombinant from E. coli BL21(DE3), pETDuet-1, HisTrap purified
T4 sequence (P76621 whole entry): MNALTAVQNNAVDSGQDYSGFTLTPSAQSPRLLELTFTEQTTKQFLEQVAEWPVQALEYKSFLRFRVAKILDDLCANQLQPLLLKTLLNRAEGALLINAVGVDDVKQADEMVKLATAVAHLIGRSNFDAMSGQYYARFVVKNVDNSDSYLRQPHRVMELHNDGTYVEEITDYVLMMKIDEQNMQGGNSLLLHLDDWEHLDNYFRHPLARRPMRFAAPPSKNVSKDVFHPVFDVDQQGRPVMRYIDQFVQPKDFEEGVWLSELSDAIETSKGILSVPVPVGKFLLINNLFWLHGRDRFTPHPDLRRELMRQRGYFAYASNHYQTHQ

[8] = biological target: T5, CsiD homolog from Klebsiella pneumoniae ATCC25955 (Klebsiella pneumoniae, UniProt A6T540); test: glutarate hydroxylation by purified homolog; format: biochemical; settings: co-substrate 2-KG
T5 construct: recombinant from E. coli BL21(DE3), pETDuet-1, HisTrap purified
T5 sequence (A6T540 entry or part of it): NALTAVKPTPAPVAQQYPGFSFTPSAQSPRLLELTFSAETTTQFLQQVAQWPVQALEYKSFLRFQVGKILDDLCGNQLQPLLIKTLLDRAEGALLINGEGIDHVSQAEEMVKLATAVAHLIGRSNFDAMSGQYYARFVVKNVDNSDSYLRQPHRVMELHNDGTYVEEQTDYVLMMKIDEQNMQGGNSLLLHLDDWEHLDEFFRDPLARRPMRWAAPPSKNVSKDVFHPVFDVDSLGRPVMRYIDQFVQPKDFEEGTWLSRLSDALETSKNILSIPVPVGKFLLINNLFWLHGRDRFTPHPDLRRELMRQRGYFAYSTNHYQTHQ

[9] = biological target: the molecule itself; test: SEC; Superdex 200 10/300 GL, eluent buffer C (50 mM sodium phosphate, 150 mM sodium chloride, pH 7.2), flow 0.5 mL min^-1; calibrated with thyroglobulin, ferritin, aldolase, conalbumin, ovalbumin and RNase A; native mass divided by the calculated monomer mass of 38.9 kDa

T1 sequence (A6T539 entry or part of it): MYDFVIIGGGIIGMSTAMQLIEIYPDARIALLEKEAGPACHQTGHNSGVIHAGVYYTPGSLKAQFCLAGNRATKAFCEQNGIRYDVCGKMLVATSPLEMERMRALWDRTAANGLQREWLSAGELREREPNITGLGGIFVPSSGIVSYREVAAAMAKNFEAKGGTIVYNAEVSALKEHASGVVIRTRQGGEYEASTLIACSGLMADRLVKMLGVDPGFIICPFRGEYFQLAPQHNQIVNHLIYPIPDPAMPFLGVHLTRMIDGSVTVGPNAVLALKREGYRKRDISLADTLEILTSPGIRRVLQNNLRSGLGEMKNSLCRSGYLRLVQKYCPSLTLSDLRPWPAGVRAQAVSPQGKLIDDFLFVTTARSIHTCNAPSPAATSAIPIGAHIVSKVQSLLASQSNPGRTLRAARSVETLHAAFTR

O=C(O)CC[C@H](O)C(=O)O [L-2-HG]
L-2-HG oxidation to 2-KG [1]: the homologs of LhgO can catalyze L-2-HG to produce 2-KG | DCPIP reduction at 600 nm; product 2-KG by HPLC and LC-MS/MS [2]: Robust activity was detected only when L-2-HG was used as the substrate | L-2-HG oxidation to 2-KG; oxygen electrode [3]: the homologs of LhgO can catalyze L-2-HG to produce 2-KG

Cc1cc2nc3c(=O)[nH]c(=O)nc-3n(C[C@H](O)[C@H](O)[C@H](O)COP(=O)(O)OP(=O)(O)OC[C@H]3O[C@@H](n4cnc5c(N)ncnc54)[C@H](O)[C@@H]3O)c2cc1C [FAD]
oxygen electrode, stimulation of oxidase activity [4]: The oxidase activity of LhgO can be stimulated by FAD

CsiD (Pseudomonas putida KT2440)
Km [5]: 95.33 ± 0.97 µM | Vmax [5]: 144 µmol/min/mg | kcat/Km [5]: 7.49e+06 ± 120000 M⁻¹ s⁻¹ | Km [6]: 145.67 ± 1.53 µM | Vmax [6]: 264 µmol/min/mg | kcat/Km [6]: 6.93e+06 ± 30000 M⁻¹ s⁻¹

O=C(O)CCCC(=O)O [glutarate]
glutarate hydroxylation by purified homolog [7]: All three homologs of CsiD can catalyze the hydroxylation of glutarate | glutarate hydroxylation by purified homolog [8]: All three homologs of CsiD can catalyze the hydroxylation of glutarate

B1: CsiD of P. putida KT2440, glutarate hydroxylase (enzyme, Pseudomonas putida KT2440, UniProt Q88IU0 1-325, looked up)
chain: MNAFTQIDELVMPLPLEPQGYTIAPSKQSPRLLELTFARETVEAFVQAVAQWPVQALEYKSFLRFRVGEILDELCQGTLRPVLLNTILDRATGGMLITPIGLDDVSQAEDMVKFTTACAHLIGRSNYDAMSGQFYARFVVVNSDNSDSYLRQPHRVMELHNDGTFVNQITDYVLMLKIDEKNMEGGNSLLLHLDDWEQCEAFFRHPLARREMRWTAPPSKKVAEDVFHSVFDTDAEGRPTMRYIDQFVQPENYEEGIWLNALSESLEGSGKKVSVPVGVGSFLLINNLFWLHGRDRFTPHEGLRRELMRQRGYVAFPKPLYQRGQ
notes: CsiD (glutarate hydroxylase) of Pseudomonas putida KT2440, locus PP2909; gene amplified from genomic DNA with primers csiD-F/csiD-R and cloned EcoRI/HindIII into pETDuet-1; also called PP2909; Fe2+/2-KG-dependent glutarate hydroxylase; source: E. coli BL21(DE3) harboring pETDuet-csiD, purified (HisTrap HP column)
stoichiometry N [9]: 8
